# Assay results: patent EP0927045B1 (The Burnham Institute, dated 1998)
# Where no end group is shown, it is not given here.
# B1: phage expressing the RGD-containing peptide CDCRGDCFC (SEQ ID NO: 1) (peptide)
# chain: CDCRGDCFC
# modifications: not fully specified (bridges); cysteine pairing not given here; also: peptide displayed on filamentous phage (fuse5), up to five copies
# Target: αvβ3 integrin expressed on blood vessels forming in the tumor
# Test: cell-based or functional assay
binder,measurement,value
B1,"phage concentrated in the breast tumor after iv injection (in vivo homing), RGD phage against unselected phage",80 fold
